Test results reported in patent EP4644420A1 (Unicet Biotech. LLC, dated 2025).
Several values for one entry are separate records, joined by “and”; a condition that tells them apart may be missing. Equal values may be shown once.

B1: humanized 2Y31 antibody (antibody, V domains shown)
VH: EVQLVESGGGLVKPGGSLKLSCAASGFAFSRYDMSWVRQSPEKRLEWVATISDDGRHTYDRDSVKGRFTISRDNAKNTLYLQMSSLRSEDTALYYCVRHRAITTARFDYWGQGTTVTVSS
VL: DIVMTQSPSSLSVSLGDTVSITCKASQDIYSNIGWLQQLPGQSFKGLIYHGTNLEDGVPSRFSGSGSGTDYSLTISGLESEDFADYYCLQYVQFPYTFGGGTKLEIKA
B2: antibody 8H9 (antibody, from another filing, V domains shown)
VH: QVQLQQSGAELVKPGASVKLSCKASGYTFTNYDINWVRQRPEQGLEWIGWIFPGDGSTQYNEKFKGKATLTTDTSSSTAYMQLSRLTSEDSAVYFCARQTTATWFAYWGQGTLVTVSA
VL: DIVMTQSPATLSVTPGDRVSLSCRASQSISDYLHWYQQKSHESPRLLIKYASQSISGIPSRFSGSGSGSDFTLSINSVEPEDVGVYYCQNGHSFPLTFGAGTKLELKR

Key:
B7-H3 antigen protein [1] = target: B7-H3 antigen protein (UniProt Q5ZPR3); assay: blocking ELISA, coated B7-H3 10 µg/mL; no blocker (m2Y31 0 µg/mL); hu2Y31 2 µg/mL
B7-H3 antigen protein [2] = target: B7-H3 antigen protein (UniProt Q5ZPR3); assay: blocking ELISA, coated B7-H3 10 µg/mL; no blocker (m1B4 0 µg/mL); 8H9 2 µg/mL
B7-H3 antigen protein [3] = target: B7-H3 antigen protein (UniProt Q5ZPR3); assay: blocking ELISA, coated B7-H3 10 µg/mL; no blocker (m2Y31 0 µg/mL); 8H9 2 µg/mL

Sequence of B7-H3 antigen protein (Q5ZPR3 29-461): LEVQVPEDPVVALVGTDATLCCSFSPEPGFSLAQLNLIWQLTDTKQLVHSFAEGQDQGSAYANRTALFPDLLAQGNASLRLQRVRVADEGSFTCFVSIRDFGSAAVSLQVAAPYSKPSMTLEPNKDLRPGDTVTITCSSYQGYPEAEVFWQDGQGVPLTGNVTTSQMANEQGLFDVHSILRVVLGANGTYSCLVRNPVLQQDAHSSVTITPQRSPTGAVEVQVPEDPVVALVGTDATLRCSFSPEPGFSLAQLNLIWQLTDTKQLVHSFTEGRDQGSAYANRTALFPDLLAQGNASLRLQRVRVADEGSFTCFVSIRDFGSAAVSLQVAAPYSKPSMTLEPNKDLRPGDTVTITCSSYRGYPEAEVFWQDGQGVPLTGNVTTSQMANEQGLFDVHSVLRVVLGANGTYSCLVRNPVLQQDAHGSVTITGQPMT

| Binder | OD value (450 nm) (B7-H3 antigen protein [1]) | OD value (450 nm) (B7-H3 antigen protein [2]) | OD value (450 nm) (B7-H3 antigen protein [3]) |
| --- | --- | --- | --- |
| B1 | 2.07 OD450 and 2.02 OD450 |  |  |
| B2 |  | 3.38 OD450 and 3.39 OD450 | 2.36 OD450 |
